Results as given in patent publication US20160271230A1 (UNIVERSITY HEALTH NETWORK, published 2016).
No end group written: not given here.

Key:
[1] = biological target: T1, His-tagged 4Ig-domain of Neogenin (Gallus gallus, UniProt Q90610 1-383); test: complementary plate assay, RGMa peptides fused with AP on coated Neogenin domains (FIG. 9)
T1 construct: Secreted from transfected cells, purified on Ni-NTA; also called His-4Ig; Neogenin-4Ig; not shown: 6-His tag at the N-terminus; myc and 6-His tags of the pSectag 2B vector at the C-terminus
T1 sequence: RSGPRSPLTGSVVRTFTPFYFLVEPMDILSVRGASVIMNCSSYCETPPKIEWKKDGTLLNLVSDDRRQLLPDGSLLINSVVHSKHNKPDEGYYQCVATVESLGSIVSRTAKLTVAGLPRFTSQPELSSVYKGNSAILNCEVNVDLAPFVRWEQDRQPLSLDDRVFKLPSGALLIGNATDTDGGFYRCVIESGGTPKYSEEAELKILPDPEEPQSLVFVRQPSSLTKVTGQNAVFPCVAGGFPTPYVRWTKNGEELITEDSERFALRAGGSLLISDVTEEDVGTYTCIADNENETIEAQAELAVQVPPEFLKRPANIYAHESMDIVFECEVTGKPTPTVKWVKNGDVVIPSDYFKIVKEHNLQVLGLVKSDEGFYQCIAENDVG
Method: (§1) (A) Different RGMa-AP proteins were incubated on wells coated with the 4Ig 6FNIII or BSA. […] Data were average±SEM (n=3 independent experiments), *p<0.005. (B) Quantification of a binding assay where 4Ig-AP and 6FNIII-AP proteins were assayed on wells coated with proteins from different RGMa regions. […] C-RGMa proteins and full length RGMa only bound 6FNIII. Data were average±SEM (n=3 independent experiments), *p<0.005. […] Quantification of a binding assay where N-RGMa-AP was assayed on wells coated with proteins DCC-4Ig and Neogenin-4Ig. In this experiment Neogenin-4Ig but not DCC-4Ig interacted with N-Raft-AP. Data were average±SEM (n=4 independent experiments), *p<0.005. (D) Cis-interaction between the 4Ig domain of Neogenin and N-Raft is required for localization of Neogenin in lipid rafts. HEK-293 cells were transfected with Neogenin and RGMa constructs. BMP2 (100 nM) was added to the medium 1 hour before cells were collected. Western blotting was performed following lipid raft fractionation. Flotillin was used as a marker for lipid raft fractions, whereas the transferrin receptor (TfR) was used as a marker for heavy membrane-fractions. Every experiment was repeated twice. […] In the first set of experiments, cells were only transfected with Neogenin. […]

[2] = biological target: T2, His-tagged 6FNIII-domain of Neogenin (Gallus gallus, UniProt Q90610 429-1036); test: complementary plate assay, RGMa peptides fused with AP (FIG. 9)
T2 construct: also called His-6FNIII; His-FNIII; not shown: His tag
T2 sequence: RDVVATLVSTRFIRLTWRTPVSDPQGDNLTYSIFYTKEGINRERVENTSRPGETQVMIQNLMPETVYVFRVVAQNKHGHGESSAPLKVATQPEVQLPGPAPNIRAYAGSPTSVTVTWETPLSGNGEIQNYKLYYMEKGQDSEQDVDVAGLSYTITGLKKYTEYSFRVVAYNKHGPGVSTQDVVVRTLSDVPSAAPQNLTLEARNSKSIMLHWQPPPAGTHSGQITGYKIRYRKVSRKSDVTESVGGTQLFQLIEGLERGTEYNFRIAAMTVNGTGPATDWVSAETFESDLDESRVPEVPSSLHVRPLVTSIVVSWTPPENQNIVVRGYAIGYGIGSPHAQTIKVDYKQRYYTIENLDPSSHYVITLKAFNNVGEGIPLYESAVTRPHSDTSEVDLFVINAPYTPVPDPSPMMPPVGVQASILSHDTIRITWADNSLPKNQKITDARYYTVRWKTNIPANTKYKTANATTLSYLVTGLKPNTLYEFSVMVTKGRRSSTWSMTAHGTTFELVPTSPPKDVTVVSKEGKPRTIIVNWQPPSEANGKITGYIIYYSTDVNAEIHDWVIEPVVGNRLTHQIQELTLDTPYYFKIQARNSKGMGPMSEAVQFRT
Method: as §1

binding result [1]: no binding
binding result [2]: binds
B1: N-inh fused with alkaline phosphatase (peptide)
chain: GDLAYHSAVHGIDDLMVQHNCSKDGPTSQPRLRTLPP
modifications: also: alkaline phosphatase tag, sequence and position not given here
notes: also called N-inh-AP; not shown: alkaline phosphatase (AP)
